Test: soluble on expression in E. coli; label from the status in PepcDB or PDB records

Sequence	soluble on expression in E. coli
MEKRELKVKTLSEVRDYEIPILKETVFDIFGGLPQAFIGISGEAGAGKTQTLMRLMADIAKREPVLVVLTEQSPHRWKAIFKKYDTNHENVRVVFKYYMDQDFIKELSQREERIIVIDSISGAVSEQKARQVAKDLRSLVEWKNKWLVGALQVRKEGVAGGEGVEHMIEVSYEITYFQLKPQNKWLYEKLKPFGYEVGDYVRLIRNTFDKVRGVQNTNLVVVDISKKNGILEFRELGRKEGEVNHE	not soluble
MLKGIDLTYPQLTYLPETGILYDNTYNEKTVPIISGGGSGHEPAHVGYVGSGMLAAAVTGPLFIPPKSKNILKAIRQVNSGKGVFVIIKNFEADLKEFNEAIKEARTEGIDVRYIVSHDDISVNAYNFHKRHRGVAGTILLHKILGAFAKEGGSIDEIEQLALSLSPEIYTLGVALAPVHFPHQKTSFVLAEDEVSFGIGIHGEPGYRVEKFEGSERIAIELVNKLKAEINWQKKANKNYILLVNGLGSTTLMELYSFQYDVMRLLELEGLSVKFCKVGNLMTSCDMSGISLTLCSVKDPKWLDYLNVPTGAFAWLEHHHHHH	not soluble
MSEKKSELVGRHKRVAYMNTDATGSSPKFERMTNFTTMTNGKNPKEYSRQYVDEIAERADVVGYAPAIEYSFDRYTNNPVHEKIATIHDGEKLGDDAHVEVVVVDFFKKSDKGDKCYATKRTYAVIPDSDGDGTDALVYSGSLKSVSDIEEGYVTETDFTSKTVTYAKGDYAATELEHHHHHH	soluble
MFAHPANTSAASDNVSKAKLLKMLNAERKENASKDQLIESLKNQLASGGSQKIMEFYRTSVEDLQTKVMRQETIIMEQSKTIEMLSIERSKSVKVHEDQINEMQEVMDKKVKQLEENYEERLKESGNESTASFDKESRDDSLEDFVEVSINEILETAESKRKLKERINHMETHCMTMLKETMEDNKLYSAQLKDQKKQFEVLQNEKAQWEKKEIQQTMELENLRLRLRDIVSLENLIL	not soluble
MINSINIQIRETNTDDFDSIMTVEKQAFGYDKEAQLVADLLADKTAEPMVSLLAFYKGEAVGHILFTRAYFDGQGALQMMHILAPLAVKPEYQRQGIGGMLIRAGIERLQEKGSCLVFVLGHKEYYPEYGFIPDAARLGYPAPYPILEQFSDYWMVQAISPKGFDVDKGKIRCSDELNKPEHWRDDESDR	not soluble
MGHHHHHHSHMASVSSATFSGHGARSLLQFLRLVGQLKRVPRTGWVYRNVQRPESVSDHMYRMAVMAMVIKDDRLNKDRKL	not soluble
MAHHHHHHMENVAKLQRQNASLKDRVSALEEQLAGATSSLARTGDCEQQISLLIERLGKEKERHKAVAEERNQLKDHLQDLEEEVEEYRTREEGWISGQERQQENEIAAQQRIAQLENDMRSCNAIVDNLTTQLTEAKHLNGVLQNQVKELKVSYSAQLDTVKESSSETVDQLRQEVEQLRSSLQNLSTEYDTRTAELEREVQNANMHAHQAEARLSEMALGSVNTLQDLRSELEDSQRSSATWKAEAQKARHEYTTLLEQYASLKRSRAAAEADLRDRLSYESNTVSALRKGIREWEDRYLALQESVGATQTEIEEQRKTIMQLEATIQKLKASGSDMLSPSQSEVVVSTNAPPVKASFSEPSLSGLPLDEILGRRLMPAPPLNPFMSMERPAWSDSRDRKTRERLEQEVVRQSAELERVRAAVADAEVWKAKYDRLQEEHDLLLQLYGQLEEDVSALRKNGAGILSADAAATSSTSGSVSAAAVP	soluble
GMDGASEIELVFRPHPTLMEKDDSAQTRYIKTSGNATVDHLSKYLAVRLALEELRSKGESNQMNLDTASEKQYTIYIATASGQFTVLNGSFSLELVSEKYWKVNKPMELYYA	soluble
MSQVLTTYETPVLPEWVDYNGHLRDAFYLLVFSYATDALMAHIGLDSQNRDASGHSLFTLECHLNFLHEVKEGARVEVRTQLLGHDRKRLHIHHALYLPGSGQALALSEQMLLHVSLDGPRSAPFEGEVLARVEALAEAHRALPVPEGVGRVIGLPPVR	not soluble
MAHHHHHHMSSPQVVCEAKKAFEANKRVYESVLLTFKGVDGYDVYNCSVPFSYKGKTHIYGRVEKRDIWAASHVRLFEETGKDEFTAVPDGMTWLLEDPFVSSVKGEALFGGTRIRKVSNRLLSYYCDFFRGGIEQGLYFTTGPDNMKDIRCVELANGSIGVFSRPKTDVYTCIGFTIIDDLSELTQKVINEAEPLNVLHPGAWGGVNQAYLLTSGKVGCIAHYSYNSKDDKDCPTSVYLNYSFVLDPETKQAEMERIIGTRSCYPDYPVKAERLIDCAFSSGIVMREDGKCDLYSGLGDTCEGRIAIDYPFEGYGAVVDQLSF	soluble
MVIHKINKLIATIKTQGIRKAIVKVAAQFKFSYKYYFIYTYNLNSSSPAIAVNEAINTNENDYSIKWWSESDFCKNKTTYLEKRSDMTDSYIENWLPLGHQTVVARSLPNNDIIGDMWLAFDNFPFPSKSKSLRDWAIENHYGYAFMAFVQPSHRGKKILPCLMNEQLKLVKDNNKKGLMALIMPKSKSSHKSFSSMGFKRVGKLHVLQLFSNNHTWISV	not soluble
MTFAPGFSGGLSPAYRLGSRRSPSPFSEEVRAEEGPGAGGFSQVFHTPCLCLGTMRWKSVLGLAVLLLASLALAQALTLDLRPYLVKVVEGKEVYEANPLAVRPGDVLEWRLVAENRAQGDLRQVALVIPIPKETYYLEGSAKPLQVGGTIVPPEFSFDGGKTFGRPPLKKRIRVVENGKEVEKEVEVKPEEYTHARWVIPVLSKGDKVMVSLRTIVR	soluble
MNKEERAKRQSKIRNFSIIAHIDHGKSTLADRILEKTNALTQREMKAQLLDSMDLERERGITIKLNAIQLNYKAKDGEEYILHLIDTPGHVDFTYEVSRSLAACEGAILVVDAAQGIEAQTLANVYLALDNNLEILPVINKIDLPSADPERVRQEVEDVIGLDASEAVLASAKAGIGIEEILEQIVEKVPAPTGDSEEPLQCMIFDSLYDPYRGVIAYIRVVNGTVKVGDKVRMMATGKEFEVTEVGVFTPKTTQRDELTVGDVGFLAASIKNVGDTRVGDTITHAKRPAAEPLAGYRKLNPMVFCGLYPIDSARYNDLRDALEKLELNDSALEFEPETSQALGFGFRCGFLGLLHMEILQERIEREFKIDLITTAPSVIYKVFLTNGEDMIVDNPSNMPDPQTIDRVEEPFVKAAIMVPNDYVGAVMEICQGKRGTFIDMQYLDETRVTLTYEIPLSEIVYDFFDQLKSNTKGYASFDYELIGYKPSKLVKMDILLNSEQVDALSFIVHRDSAYDRGKVIVEKLKELIPRQQFEVPIQATIGNKVVARSTIKAMRKNVLAKCYGGDISRKRKLLDKQKEGKKRMKSVGSVEVPQEAFMAVLKMDDN	soluble
MADLLDKIMGSSSSNRIPKRDNRMNQDKDEPTSKRSAPMFSTPKSTTPIGRDSFATMDTMNVQMNMFPVDIKDMPHKIQRFQVDVIVCSSNGKQINANLGVLAAKGDVNSHNRRLAQYYIMRTVHDKLLVKFSGKSHHFLAYDCAATLYLPEGVYTGDDQEEVTLTIDDFPKEEWKFVSKLSRRKDDSYLVVLKPAGFVYTQGEVAQEEANRMELTRIIEIVTSQKLNNEDYLQFGNATFPRLSPPHSEPDAISEIRSGFAKVSRLSQNGGGKAFMTVDTKISPFYKDTSVIKFSSNKLSEMKGGGGGRGGYGRSDSRDSRGGYRGGRSDSRDFRGVYGNRGGNDRYRDESRGRRDMYDSRRDSGSSNGADYSPSDAAELEHAFGERGNTKRCIEEALKGLDVECTHLKGNLIRVSSIAENNAENTSFMMKDDKGEREVTVAEYFLLQYNIKLKYPRLPLVVSKRFKHESFFPMELLRIAPGQRIKVNKMSPTVQSAMTGRNASMPQHHVKLVQDILRDNLKLEQNKYMDAFGIKLMSTEPIQMTAKLLPPAQIKFKGQTYMPDMSRPAFRTQDKFVEPARIRKIGIVVFDNCIQMRQAEDFCDKLSNFCRDNGITVEKDSRDWSIRELNSSDSVAIQNLMKKWLDDRVDILVGIAREKKPDVHDILKYFEESIGLQTIQLCQQTVDKMMGGQGGRQTIDNVMRKFNLKCGGTNFFVEIPNAVRGKAVCSNNETLRKKLLEHVQFIGFEISHGASRTLFDRSRSQMDGEPSVVGVSYSLTNSTQLGGFTYLQTQKEYKLQKLDEFFPKCVRSYKEHSKTLPTRIVIYRVGAGEGNFNRVKEEVEEMRRTFDKIQPGYRPHLVVIIAQRASHARVFPSCISGNRATDQNIPSGTCVENVLTSYGYDEFILSSQTPLIGTVRPCKYTILVNDAKWSKNELMHLTYFRAFGHQVSYQPPSVPDVLYAAENLAKRGRNNYKIHQRYVNLQAVENRIIKDHSELINEDMREELAAAIVDEMSVAMNGMTIPKRNFWA	not soluble
MPFIAAMWHGQHIMISFMSRPQDRVATIISRSPDGNINTMALTRMGVRVMRASGARGRAVKDARAKGGAEGLRAMVKALKGGETVAFSADVPKVSRVCLEHHHHHH	not soluble
MAVAGAVSGEPLVHWCTQQLRKTFGLDVSEEIIQYVLSIESAEEIREYVTDLLQGNEGKKGQFIEELITKWQKNDQELISDPLQQCFKKDEILDGQKSGDHLKRGRKKGRNRQEVPAFTEPDTTAEVKTPFDLAKAQENSNSVKKKTKFVNLYTREGQDRLAVLLPGRHPCDCLGQKHKLINNCLICGRIVCEQEGSGPCLFCGTLVCTHEEQDILQRDSNKSQKLLKKLMSGVENSGKVDISTKDLLPHQELRIKSGLEKAIKHKDKLLEFDRTSIRRTQVIDDESDYFASDSNQWLSKLERETLQKREEELRELRHASRLSKKVTIDFAGRKILEEENSLAEYHSRLDETIQAIANGTLNQPLTKLDRSSEEPLGVLVNPNMYQSPPQWVDHTGAASQKKAFRSSGFGLEFNSFQHQLRIQDQEFQEGFDGGWCLSVHQPWASLLVRGIKRVEGRSWYTPHRGRLWIAATAKKPSPQEVSELQATYRLLRGKDVEFPNDYPSGCLLGCVDLIDCLSQKQFKEQFPDISQESDSPFVFICKNPQEMVVKFPIKGNPKIWKLDSKIHQGAKKGLMKQNKAV	soluble
MGSDKIHHHHHHMKILFVAPGWPRGRLWGELGFKFPSLALAALAAVTPPEWDAALCDESRETIDFNAPCDLVAITAMTPQAPRAYEIAAGFRARGKTVVMGGFHASNLPDEALGHVDAVVVGEGELSWPLLLADFQAGRLQRLYRSPGLLPMASIPVARREIFAGKGYLLTNTLQTTRGCPFDCEFCSVTAFYGRKYRERPVEAVLAELETLRKANSFAFFVDDNLVADRRYALPLFRGMKGMGFKWLSHAPIDFAGDEELMRAAGESGCIGMFVGFESLDQEALAAMGKVTNSSSAFLDQARKFRDHGIGILGSFVLGYDGDTPDSFGRILRFCEEARIEAAIFPILTPYPGTAVRRRLEAEGRITSNDWRDYDMGHVTFRPTGMTARELQDGHDWLNRSFYSFGSMWRRIGKLHRSVQVFGPMNLGFRSAIRKSDKTKAS	not soluble
MGSDKIHHHHHHMERQARIIAFYATNENVGKSTLSIAMANELAHLGKKVLYVEADQVRPSFAVGTGLSHDSKNILELVRKENEYNLSQYICTKQDLLERKMNPRLMQKLHDKMDFLVFPSGYNLAQFPEIQNKELFVTTFIESLVDTEYDSIILSVPTELSEVLSYPILYQSDLVIHVLNGNPRGAIAIKRELQLLEEAKLTLPRMIHVLNMADEDYVEDIEKLSSQKIAVTIPYDRDRTSYEWGMQFGSPQINTKVHHIMEAAGLDIPTQHTSSMKKGLFGLRN	not soluble
GPLGSMPGPAAGSRARVYAEVNSLRSREYWDYEAHVPSWGNQDDYQLVRKLGRGKYSEVFEAINITNNERVVVKILKPVKKKKIKREVKILENLRGGTNIIKLIDTVKDPVSKTPALVFEYINNTDFKQLYQILTDFDIRFYMYELLKALDYCHSKGIMHRDVKPHNVMIDHQQKKLRLIDWGLAEFYHPAQEYNVRVASRYFKGPELLVDYQMYDYSLDMWSLGCMLASMIFRREPFFHGQDNYDQLVRIAKVLGTEELYGYLKKYHIDLDPHFNDILGQHSRKRWENFIHSENRHLVSPEALDLLDKLLRYDHQQRLTAKEAMEHPYFYPVVKEQSQ	soluble

Reference: the DeepSol protein solubility set
